According to patent US20150284813A1:

Molecular target: bioluminescent capsule containing ALuc16 in its frame structure (DEVD sequence as cargo)
Assay: cell-based or functional assay

Chain of bioluminescent capsule containing ALuc16 in its frame structure (DEVD sequence as cargo) (chain, as listed by the source, form in doubt): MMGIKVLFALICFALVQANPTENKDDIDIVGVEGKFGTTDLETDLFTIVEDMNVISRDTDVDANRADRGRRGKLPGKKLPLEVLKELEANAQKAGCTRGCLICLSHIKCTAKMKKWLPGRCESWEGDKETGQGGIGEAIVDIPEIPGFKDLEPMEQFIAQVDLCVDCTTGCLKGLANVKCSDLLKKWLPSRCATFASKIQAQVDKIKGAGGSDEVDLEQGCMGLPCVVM

luminescence intensity of COS-7 cells with versus without STS (two minutes), LAS-4000 image: 2 folds
Substance: Caspase-3 (enzyme)
